PMC12629983, “Nanobody-based recombinant antivenom for cobra, mamba and rinkhals bites” (Nature, 2025)

Columns and labels:
Details in all cases: both partners purified
lNTx-7 = target: T1, lNTx-7 (Naja kaouthia (Latoxan L8114), biotin (EZ-Link NHS-PEG4-Biotin, amine coupling)); experiment: BLI; […] (0.5 µg/ml) […], pH 7.2; 600 s association, 600 s dissociation; global 1:1 fit
T1 chain: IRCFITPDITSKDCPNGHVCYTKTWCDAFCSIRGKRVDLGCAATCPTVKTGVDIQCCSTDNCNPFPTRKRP

lNTx-3 = target: T2, lNTx-3 (Dendroaspis polylepis (L1309), fraction …, biotin (EZ-Link NHS-PEG4-Biotin, amine coupling)); experiment: as above
T2 chain: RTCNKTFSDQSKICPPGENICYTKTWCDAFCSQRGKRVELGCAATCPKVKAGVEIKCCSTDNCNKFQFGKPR

[1] = target: protein of Hemachatus haemachatus PRINTED:77012629983_21 (Hemachatus haemachatus, fraction Hh9 …); experiment: as above
KUN-2 [2] = target: T3, KUN-2 (Dendroaspis polylepis (L1309), fraction …, biotin (EZ-Link NHS-PEG4-Biotin, amine coupling)); experiment: as above
T3 construct: source: venom fraction isolated from whole venom (Latoxan) by RP-HPLC; biotinylated
T3 chain: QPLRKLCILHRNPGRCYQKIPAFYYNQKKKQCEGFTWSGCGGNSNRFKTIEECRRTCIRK

KUN-1 = target: T4, KUN-1 (Dendroaspis jamesoni (L1308, Cameroon), …, biotin (EZ-Link NHS-PEG4-Biotin, amine coupling)); experiment: as above
T4 construct: source: venom fraction isolated from whole venom (Latoxan) by RP-HPLC; biotinylated
T4 chain: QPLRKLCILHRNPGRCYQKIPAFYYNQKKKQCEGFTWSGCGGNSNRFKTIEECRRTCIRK

KUN-2 [3] = target: KUN-2 (Dendroaspis polylepis (L1309), UniProt P00979, biotin (EZ-Link NHS-PEG4-Biotin, amine coupling)); experiment: BLI; […], pH 7.2; 600 s association, 600 s dissociation; global 1:1 fit
PLA2-3 = target: T5, PLA2-3 (Naja nubiae (Egypt, L1342), fraction …, UniProt P14556); experiment: cryo-EM structure
T5 construct: also called basic phospholipase A2 nigexine (P14556)
T5 sequence (P14556 whole entry): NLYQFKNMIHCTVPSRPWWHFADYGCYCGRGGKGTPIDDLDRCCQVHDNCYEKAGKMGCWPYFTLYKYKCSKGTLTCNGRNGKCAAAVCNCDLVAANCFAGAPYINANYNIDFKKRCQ

sNTx-6 = target: T6, sNTx-6 (Naja melanoleuca (L1318), fraction Nm3, biotin (EZ-Link NHS-PEG4-Biotin, amine coupling)); experiment: BLI; […] (0.5 µg/ml) […], pH 7.2; 600 s association, 600 s dissociation; global 1:1 fit
T6 chain: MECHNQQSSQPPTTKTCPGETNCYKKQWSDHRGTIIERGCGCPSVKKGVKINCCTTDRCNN

sNTx-1 = target: T7, sNTx-1 (Dendroaspis jamesoni (L1308, Cameroon), …); experiment: as above
T7 chain: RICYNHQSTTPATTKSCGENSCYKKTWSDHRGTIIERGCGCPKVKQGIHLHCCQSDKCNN

sNTx-5 = target: T8, sNTx-5 (Hemachatus haemachatus (L1311), …, biotin (EZ-Link NHS-PEG4-Biotin, amine coupling)); experiment: as above
T8 chain: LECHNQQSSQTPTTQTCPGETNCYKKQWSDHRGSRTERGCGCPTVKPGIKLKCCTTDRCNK

sNTx-7 = target: T9, sNTx-7 (Naja annulifera (L1314), fraction Nan3, biotin (EZ-Link NHS-PEG4-Biotin, amine coupling)); experiment: as above
T9 chain: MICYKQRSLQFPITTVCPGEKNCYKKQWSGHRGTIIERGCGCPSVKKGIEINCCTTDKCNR

[4] = target: T10, α-short-chain neurotoxin (P01426) from N. pallida (Naja pallida, UniProt P01426); experiment: crystal structure
T10 construct: also called short neurotoxin 1 (P01426); source: bought: Latoxan (lyophilized)
T10 sequence (P01426 whole entry, one chain of several): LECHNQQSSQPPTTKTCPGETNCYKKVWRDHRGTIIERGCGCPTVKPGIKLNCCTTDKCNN

Og XI-2 = target: T11, Og XI-2 (Dendroaspis viridis, UniProt P01405); experiment: BLI; […] (0.5 µg/ml) […], pH 7.2; 600 s association, 600 s dissociation; global 1:1 fit
T11 construct: source: venom fraction isolated from whole venom (Latoxan) by RP-HPLC; biotinylated

Og XI-1 = target: T12, Og XI-1 (Dendroaspis jamesoni venom (L1308); …); experiment: as above
T12 construct: source: venom fraction isolated from whole venom (Latoxan) by RP-HPLC; biotinylated
T12 chain: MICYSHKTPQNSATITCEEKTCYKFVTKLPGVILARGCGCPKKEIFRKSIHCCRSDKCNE

[5] = target: T13, Cardiotoxin (P01468) from N. pallida (Naja pallida, UniProt P01468); experiment: crystal structure
T13 construct: also called cardiotoxin (UniProt: P01468); source: bought: Latoxan (lyophilized)
T13 sequence (P01468 whole entry, looked up, one chain of several): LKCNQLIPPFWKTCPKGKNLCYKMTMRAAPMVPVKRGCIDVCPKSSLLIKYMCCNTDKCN

CTx-10 = CTx-10 (Naja pallida (Kenya, L1321)); Latoxan …, UniProt P01468, biotin (EZ-Link NHS-PEG4-Biotin, amine coupling)); experiment: BLI; […], pH 7.2; 600 s association, 600 s dissociation; global 1:1 fit
Sequence of CTx-10 (Naja pallida (Kenya, L1321)); Latoxan …, UniProt P01468, biotin (EZ-Link NHS-PEG4-Biotin, amine coupling)) (P01468 whole entry, looked up): as the sequence (P01468 whole entry, looked up, one chain of several) above

B1: VHH9 a-lNTx (VHH)
VHH: QVQLQESGGGLVQPGGSLRLSCTASGSIFSTVNTMGWYRQAPGKQRELVAAITGGGSTNYADSVKGRFTISRDNVENTVHLRMNALKPEDTAVYYCNFQEYCSAYGCYELPHDYWGQGTQVTVSS
notes: source: E. coli BL21 (DE3), purified (Ni resin)
Binder B1 has a Kd (lNTx-7) of 0.753 nM, a koff (lNTx-7) of 2.71e-05 s⁻¹ and a kon (lNTx-7) of 36000 M⁻¹ s⁻¹. The Kd (lNTx-3) was 1.18 nM, the koff (lNTx-3) was 0.000203 s⁻¹ and the kon (lNTx-3) was 173000 M⁻¹ s⁻¹.

B2:  (VHH)
VHH: QVQLQESGGGLVQAGGSLRLSCAAPGFTFDNYAIGWFRQAPGKEREAVSMIDVNDGDTYYADSVKGRFATSIDNARITAYLQMNSLKPEDTAVYYCAAGEQGGIETEDDYGMDYYGKGTQVTVSS
notes: also called VHH4; source: E. coli BL21 (DE3), purified (Ni resin)
B2: no binding (tested: 480 nM) [1].

B3: VHH17 a-KUN (VHH)
VHH: QVQLQESGGGLVQPGGSLRLSCITSGSNFDDLSVGWFRQAPGKEREGVSCFSSSDGSTYYVDSVKGRFTMSRDNAKNTVYLQMNNLKPEDTAVYYCTADGFPYPSETMCSIPGGPDSVAWGQGTQVTVSS
notes: as for B1
With B3 the Kd (KUN-2 [2]) was < 0.001 nM, the koff (KUN-2 [2]) was < 1e-07 s⁻¹ and the kon (KUN-2 [2]) was 86900 M⁻¹ s⁻¹. The Kd (KUN-1) was 0.0405 nM, the koff (KUN-1) was 8.43e-07 s⁻¹ and the kon (KUN-1) was 20800 M⁻¹ s⁻¹.

B4: VHH17 a-KUN (VHH)
VHH: QVQLQESGGGLVQPGGSLRLSCITSGSNFDDLSVGWFRQAPGKEREGVSCFSSSDGSTYYVDSVKGRFTMSRDNAKNTVYLQMNNLKPEDTAVYYCTADGFPYPSETMCSIPGGPDSVAWGQGTQVTVSS
notes: source: E. coli BL21 (DE3), purified (Ni-NTA)
B4: binds (KUN-2 [3]).

B5: VHH20 a-PLA2 (VHH)
VHH: QVQLQESGGGLAQAGGSLRLSCAASGLAFSNYSMGWARQAPGKEREFVAAISWSHQPTYYADSVKGRFTISRDNAKNTLYLQMNSLKPEDTAVYYCAADSRPNSYRLGGPGNYWGQGTQVTVSS
notes: also called anti-PLA2 VHH
B5: binds (PLA2-3).

B6: VHH5 a-sNTx (VHH)
VHH: QVQLQESGGGLVRPGGSLRLSCAVSGVSESIFANYVVGWFRQQDSGTGRDLVAQSSSDDEYNHVSGSVKGRFTISRDNAKNTVSLQMDNLKPEDTAIYICAAAIGPGDNYIYWGQGTQVTVSS
notes: as for B1
B6 showed a Kd (sNTx-6) of 5.46 nM, a koff (sNTx-6) of 0.000163 s⁻¹ and a kon (sNTx-6) of 29800 M⁻¹ s⁻¹. For the same binder, the Kd (sNTx-1) was 1.9 nM, the koff (sNTx-1) was 4.72e-05 s⁻¹ and the kon (sNTx-1) was 24900 M⁻¹ s⁻¹. The Kd (sNTx-5) was 16.9 nM, the koff (sNTx-5) was 0.000631 s⁻¹ and the kon (sNTx-5) was 37400 M⁻¹ s⁻¹. For the same binder, the Kd (sNTx-7) was 0.388 nM, the koff (sNTx-7) was 1.44e-05 s⁻¹ and the kon (sNTx-7) was 37100 M⁻¹ s⁻¹.

B7: VHH5 a-sNTx (VHH)
VHH: QVQLQESGGGLVRPGGSLRLSCAVSGVSESIFANYVVGWFRQQDSGTGRDLVAQSSSDDEYNHVSGSVKGRFTISRDNAKNTVSLQMDNLKPEDTAIYICAAAIGPGDNYIYWGQGTQVTVSS
notes: also called anti-sNTx VHH; source: E. coli BL21 (DE3), purified (Ni-NTA)
B7: binds [4].

B8: VHH15 a-Og XI (VHH)
VHH: QVQLQESGGGAVPAGGSLTLSCAASGRTLSDYTMGWFRQAPGKEREIVGAISWNDGYTYYDDSVKGRFTISRDNAKNTMYLQMNSLKPEDTAVYYCAAQAPEMVRSGNFGSWGPGTQVTVSS
notes: as for B1
Binder B8 has a Kd (Og XI-2) of 2.16 nM, a koff (Og XI-2) of 0.000122 s⁻¹ and a kon (Og XI-2) of 56700 M⁻¹ s⁻¹. For the same binder, the Kd (Og XI-1) was 2.19 nM, the koff (Og XI-1) was 0.000161 s⁻¹ and the kon (Og XI-1) was 73400 M⁻¹ s⁻¹.

B9:  (VHH)
VHH: QVQLQESGGGLVQAGGSLRLSCAASGRTFSSYAMAWFRQAPGKEREFVASISWNGDSTYYADSVKGRFTISGDNAKNTWYLQMKSLKPEDTAVYYCNTEDEGSGTYYEWGQGTQVTVSS
notes: also called VHH1; source: E. coli BL21 (DE3), purified (Ni resin)
B9: no binding (tested: 480 nM) [1].

B10:  (VHH)
VHH: QVQLQESGGGLVQAGGSLRLSCAASGRTFSSYAMAWFRQAPGKEREFVASISWNGDSTYYADSVKGRFTISGDNAKNTWYLQMKSLKPEDTAVYYCNTEDEGSGTYYEWGQGTQVTVSS
notes: also called anti-CTx VHH; source: E. coli BL21 (DE3), purified (Ni-NTA)
B10: binds [5]; binds (CTx-10).
